# Values quoted from earlier work in paper PMC3137789.
# pKd: −log10 of the molar value.
# Molecular target: plexinC1 (Homo sapiens) (UniProt O60486)
# Chain of UniProt O60486 (O60486 35-944): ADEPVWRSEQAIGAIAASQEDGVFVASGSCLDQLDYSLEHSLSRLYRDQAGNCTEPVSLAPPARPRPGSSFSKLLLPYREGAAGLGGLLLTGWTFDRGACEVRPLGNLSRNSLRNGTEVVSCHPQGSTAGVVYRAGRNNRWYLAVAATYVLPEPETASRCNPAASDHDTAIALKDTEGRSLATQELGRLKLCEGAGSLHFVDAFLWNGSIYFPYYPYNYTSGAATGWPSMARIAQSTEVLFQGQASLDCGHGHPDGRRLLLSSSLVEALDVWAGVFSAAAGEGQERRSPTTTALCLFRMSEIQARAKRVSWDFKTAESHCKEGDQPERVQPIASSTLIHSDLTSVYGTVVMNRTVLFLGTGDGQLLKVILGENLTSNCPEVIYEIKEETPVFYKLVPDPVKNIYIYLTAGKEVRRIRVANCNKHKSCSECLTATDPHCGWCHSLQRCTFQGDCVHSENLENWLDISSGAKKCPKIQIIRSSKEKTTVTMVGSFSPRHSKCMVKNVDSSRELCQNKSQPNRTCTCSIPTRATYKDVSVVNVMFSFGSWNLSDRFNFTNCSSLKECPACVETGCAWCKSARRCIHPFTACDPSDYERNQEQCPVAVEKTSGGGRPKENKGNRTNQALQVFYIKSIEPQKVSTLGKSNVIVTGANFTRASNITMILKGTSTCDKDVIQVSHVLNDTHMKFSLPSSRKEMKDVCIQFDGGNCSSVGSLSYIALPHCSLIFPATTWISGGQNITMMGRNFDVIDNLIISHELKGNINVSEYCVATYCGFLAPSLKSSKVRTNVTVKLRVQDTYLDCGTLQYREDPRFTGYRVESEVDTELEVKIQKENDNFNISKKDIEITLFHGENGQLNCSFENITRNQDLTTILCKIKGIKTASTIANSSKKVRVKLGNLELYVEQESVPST
substance,measurement,value
Sema7A (from UniProt O75326),pKd,6.52
